Test results reported in patent US7728193B2, “Phytochrome-interacting protein and a use thereof” (Genomine Inc., priority 2004, dated 2010).

Key:
[1] = molecular target: autophosphorylated oat Pfr phytochrome A (oat)
[2] = molecular target: T1, GST-PAPP5 (Arabidopsis thaliana, UniProt Q84XU2); assay: In vitro phosphatase assay of GST-PAPP5 with ρNPP as substrate: effect of arachidonic acid and okadaic acid; assay type: biochemical
T1 sequence (Q84XU2 1-484 isoform Q84XU2-2): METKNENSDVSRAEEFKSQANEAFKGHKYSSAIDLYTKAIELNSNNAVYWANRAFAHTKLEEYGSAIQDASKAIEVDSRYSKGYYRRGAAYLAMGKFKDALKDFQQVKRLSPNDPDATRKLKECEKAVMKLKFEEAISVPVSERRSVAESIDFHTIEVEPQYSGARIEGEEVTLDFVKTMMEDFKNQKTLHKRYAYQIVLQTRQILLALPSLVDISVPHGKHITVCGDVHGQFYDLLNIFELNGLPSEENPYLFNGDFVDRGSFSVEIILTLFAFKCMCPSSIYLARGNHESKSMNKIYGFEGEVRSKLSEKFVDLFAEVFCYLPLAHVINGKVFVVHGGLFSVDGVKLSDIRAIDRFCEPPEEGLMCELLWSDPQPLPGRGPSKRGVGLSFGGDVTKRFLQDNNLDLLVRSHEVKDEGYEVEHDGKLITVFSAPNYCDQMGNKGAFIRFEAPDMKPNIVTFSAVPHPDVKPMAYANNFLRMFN
Description: In order to examine whether the inventive PAPP5 protein has enzymatic activity, an enzymatic assay was performed using […] ρ-nitrophenyl phosphate (ρNPP) as a substrate. First, the GST-PAPP5 fusion protein purified in Example <4-1> was prewarmed at 30° C. for 1 minute. The prewarmed enzyme solution was added to 100 μl of kinase/phosphatase (KP) buffer (20 mM Tris-HCl pH 7.5, 30 mM MgCl2, 1 mM EDTA, 1 mM EGTA, 0.1% β-mercaptoethanol, 0.1% ethanol) containing O-400 mM ρNPP to initiate a reaction. […] . After reaction at 30° C. for 15 minutes, 900 μl of 0.25N NaOH was added to terminate the reaction. The absorbance at 410 nm was measured. After subtracting the absorbance value of the control reaction solution containing all the components except for the enzyme from that of the reaction solution containing the enzyme, the rate was calculated using a millimolar extinction coefficient (17.8) of ρ-nitrophenolate ions.
In order to confirm if the phosphatase activity of the inventive PAPP5 protein is activated by arachidonic acid, 0-300 μM arachidonic acid was added to a reaction mixture in the presence of 100 mM ρNPP, and the enzymatic activity was measured according to the same method as Example <6-1>.
Thus, the inhibitory effect of okadaic acid on the phosphatase activity of GST-PAPP5 was examined. As a result, the IC50 of okadaic acid, at which the enzyme activity is inhibited by 50%, was 5 nM (data not shown).
(§1) Thus, in order to confirm if PAPP5 also have this property, the present inventors examined the phosphatase activities of GST-PAPP5, GST-TPR and GST-PP2Ac in the same manner as in Example <6-1>. At this time, the concentration of ρNPP was 100 mM.

[3] = test system: autophosphorylated oat phytochrome A; assay: Dephosphorylation of autophosphorylated phytochrome by PAPP5 in vitro; assay type: biochemical; details: 1 μg fusion protein, 30 minutes
Description: First, KP buffer (20 mM Tris-HCl pH7.5, 30 mM MgCl2, 1 mM EDTA, 1 mM EGTA, 0.1% β-mercaptoethanol, 0.1% ethanol) containing 1 μg of purified oat phytochrome A (provided from Kumho Life and Environmental Science Laboratory, Korea) was set on ice and irradiated with Rc light output of 50 μmolS^−1m^−2 at 664 nm for 5 minutes. Then, the reaction solution was allowed to react with [γ-^32P]ATP in dark conditions for 30 minutes (autophosphorylation of phytochrome A). Following addition of 1 μg of each of the fusion proteins GST-PAPP5, GST-TPR and GST-PP2Ac prepared in Examples <4-1> and <5-1>, the reaction continued for more 30 minutes, and then stopped by adding 12 μl of 5× Tris-glycine SDS sample buffer under dim green safe light.
Next, the present inventors investigated whether the phosphatase activity of PAPP5 depends on a change in the spectroscopic structure (photoconversion) of phytochrome molecules (Pr⇄Pfr). KP buffer solution containing phytochrome was set on ice and irradiated with a Rc light output of 50 μmolS^−1m^−2 at 664 nm (conversion of phytochrome into Pfr form) or a FRc light output of 50 μmolS^−1m^−2 at 748 nm (conversion of phytochrome into […]) for 5 minutes. Then, the autophosphylation/dephosphorylation test of phytochrome was performed in the same manner as described above.

[4] = test system: phytochrome molecules; assay: Pull-down assay with PAPP5 domain fragments; assay type: binding, Arabidopsis thaliana
Description: Thereafter, according to the same method as in Example <4-1>, an in vitro assay was performed on each of the proteins which have been expressed and purified in E. coli.

[5] = test system: phytochromes; assay: Quantitative yeast two-hybrid assay (β-galactosidase activity); assay type: cell-based, Arabidopsis thaliana; details: PHYA or PHYB bait, EGY48 yeast
Description: In order to quantitatively assay the interaction between the TPR domain of PAPP5 and phytochromes, each of recombinant vectors (preys) for the TPR domain of PAPP5 and for the PP2A catalytic domain of PAPP5 were prepared, respectively.
A PHYA gene or a PHYB gene was prepared by performing PCR according to the same method as in Example <4-2>, and inserted into a pGilda vector. The recombinant vector was used as a bait. The prepared bait or prey was co-introduced into an EGY48 yeast strain together with a pSH18-34 reporter plasmid. The transformed strain was cultured until the OD600 value reached about 0.7. The cultured cells were washed one time with Z-buffer solution (60 mM Na2HPO4, 40 mM NaH2PO4, 10 mM KCl, 1 mM MgSO4, pH 7.0), and then re-suspended in the solution. Thereafter, the solution was frozen with liquid N2. The frozen solution was dissolved, to which β-mercaptoethanol and ONPG (o-nitrophenyl-β-D-galactopyranoside) were then added at final concentrations of 0.2% and 0.67 mg/ml, respectively. The dissolved solution was allowed to react for 30 minutes at 37° C. Next, Na2CO3 was added to the solution at a final concentration of 0.3 M to terminate the reaction. The absorbance at […] was measured, and the β-galactosidase activity was determined in Miller units (Miller, J. H. Experiments in Molecular Genetics (Cold Spring Harbor Laboratory, Cold Spring harbor, N.Y., 1972)).

[6] = In vitro phosphatase assay: enzymatic activity of PAPP5 and its domain fragments on ρNPP; assay type: biochemical; details: 100 mM ρNPP; regardless of the addition of arachidonic acid
Description: In order to examine whether the inventive PAPP5 protein has enzymatic activity, an enzymatic assay was performed using […] ρ-nitrophenyl phosphate (ρNPP) as a substrate. First, the GST-PAPP5 fusion protein purified in Example <4-1> was prewarmed at 30° C. for 1 minute. The prewarmed enzyme solution was added to 100 μl of kinase/phosphatase (KP) buffer (20 mM Tris-HCl pH 7.5, 30 mM MgCl2, 1 mM EDTA, 1 mM EGTA, 0.1% β-mercaptoethanol, 0.1% ethanol) containing O-400 mM ρNPP to initiate a reaction. To examine the autohydrolysis of ρNPP at each substrate concentration, the GST-PAPP5 enzyme solution was not added to a control group. After reaction at 30° C. for 15 minutes, 900 μl of 0.25N NaOH was added to terminate the reaction. The absorbance at 410 nm was measured. After subtracting the absorbance value of the control reaction solution containing all the components except for the enzyme from that of the reaction solution containing the enzyme, the rate was calculated using a millimolar extinction coefficient (17.8) of ρ-nitrophenolate ions.
as §1

GST-PAPP5 fusion protein (enzyme)
dephosphorylation of autophosphorylated phytochrome A (autoradiography after SDS-PAGE) [1]: 80%

CCCCC/C=C\C/C=C\C/C=C\C/C=C\CCCC(=O)O [arachidonic acid]
arachidonic acid concentration at which activity of GST-PAPP5 reached the stationary phase ([2]; 0-300 μM arachidonic acid, 100 mM ρNPP): above 100 μM
increase of phosphatase activity of GST-PAPP5 by arachidonic acid ([2]; 100 mM ρNPP): about five times increased

C=C1[C@@H](O)[C@@H]2O[C@]3(CC[C@H](/C=C/[C@@H](C)[C@@H]4CC(C)=C[C@@]5(O[C@H](C[C@@](C)(O)C(=O)O)CC[C@H]5O)O4)O3)CC[C@H]2O[C@@H]1[C@@H](O)C[C@H](C)[C@H]1O[C@@]2(CCCCO2)CC[C@H]1C [okadaic acid]
IC50 ([2]; phosphatase activity of GST-PAPP5, data not shown, read-out: IC50 of okadaic acid, at which the enzyme activity is inhibited by 50%): 5 nM

GST-PAPP5: a fusion protein of GST and full-length PAPP5
dephosphorylation of autophosphorylated oat Pfr phytochrome A [3]: about 80%

B1: GST-TPR: fusion protein of GST and TPR domain of PAPP5, amino acids 1-138 of SEQ ID NO: 4 (protein)
chain: METKNENSDVSRAEEFKSQANEAFKGHKYSSAIDLYTKAIELNSNNAVYWANRAFAHTKLEEYGSAIQDASKAIEVDSRYSKGYYRRGAAYLAMGKFKDALKDFQQVKRLSPNDPDATRKLKECEKAVMKLKFEEAIS
level of dephosphorylation of autophosphorylated oat Pfr phytochrome A (in words) [3]: do not affect the phosphorylation status
ability to interact with phytochrome molecules (pull-down) [4]: has the ability to interact

B2: B42-PP2Ac: TPR domain-deleted PP2A catalytic domain of PAPP5 as yeast two-hybrid prey (protein)
chain: SVPVSERRSVAESIDFHTIEVEPQYSGARIEGEEVTLDFVKTMMEDFKNQKTLHKRYAYQIVLQTRQILLALPSLVDISVPHGKHITVCGDVHGQFYDLLNIFELNGLPSEENPYLFNGDFVDRGSFSVEIILTLFAFKCMCPSSIYLARGNHESKSMNKIYGFEGEVRSKLSEKFVDLFAEVFCYLPLAHVINGKVFVVHGGLFSVDGVKLSDIRAIDRFCEPPEEGLMCELLWSDPQPLPGRGPSKRGVGLSFGGDVTKRFLQDNNLDLLVRSHEVKDEGYEVEHDGKLITVFSAPNYCDQMGNKGAFIRFEAPDMKPNIVTFSAVPHPDVKPMAYANNFLRMFN
activity of interaction with phytochromes (β-galactosidase activity) [5]: remarkable reduction

B3: GST-PP2Ac: fusion of GST and PP2A catalytic domain of PAPP5 with a deletion of amino acids 1-138 in SEQ ID NO: 4 (protein)
chain: B2 chain
level of dephosphorylation of autophosphorylated oat Pfr phytochrome A (in words) [3]: very low
phosphatase activity relative to GST-PAPP5 with no arachidonic acid [6]: five times higher activity
